From publication PMC7315737, “The putative Escherichia coli dehydrogenase YjhC metabolises two dehydrated forms of N-acetylneuraminate produced by some sialidases” (Bioscience Reports, 2020)

What was measured:
Assay type in all cases: biochemical, Escherichia coli
purified protein [1] = substrate: CC(=O)N[C@H]1[C@H]2O[C@@](C(=O)O)(C[C@@H]1O)O[C@@H]2[C@H](O)CO; assay: purified protein; conditions: 50 µM NAD+, 30 mM HEPES pH 7.5, 10 mM KCl, 1 mM MgCl2, 37°C, sigmoidal, Hill coefficient 2.20
purified protein [2] = substrate: [H][C@@]1([C@H](O)[C@H](O)CO)OC(C(=O)O)=C[C@H](O)[C@H]1NC(C)=O; assay: purified protein; conditions: 50 µM NAD+, 30 mM HEPES pH 7.5, 10 mM KCl, 1 mM MgCl2, 37°C, sigmoidal, Hill coefficient 2.59
[3] = substrate: NC(=O)c1ccc[n+]([C@@H]2O[C@H](COP(=O)(O)OP(=O)(O)OC[C@H]3O[C@@H](n4cnc5c(N)ncnc54)[C@H](O)[C@@H]3O)[C@@H](O)[C@H]2O)c1; assay: Neu5Ac formation versus NAD+ concentration, endpoint assay; conditions: 1 mM 2,7-AN, 0.45 µM YjhC, 30 mM HEPES pH 7.5, 10 mM KCl, 1 mM MgCl2, 37°C, Ka is a half-activation constant, not an association constant, varied: cofactor

B1: YjhC (Escherichia coli K-12) (protein)
chain: MINYGVVGVGYFGAELARFMNMHDNAKITCVYDPENGENIARELQCINMSSLDALVSSKLVDCVIVATPNYLHKEPVIKAAKNKKHVFCEKPIALSYEDCVDMVKACKEAGVTFMAGHIMNFFNGVQYARKLIKEGVIGEILSCHTKRNGWENKQERLSWKKMKEQSGGHLYHHIHELDCVQHLLGEIPETVTMIGGNLAHSGPGFGNEDDMLFMTLEFPSGKLATLEWGSAFNWPEHYVIINGTKGSIKIDMQETAGSLRIGGQTKHFLVHETQEEDDDRRKGNMTSEMDGAIAYGHPGKKTPLWLASLIRKETLFLHNILCGAKPEEDYIDLLNGEAAMSAIATADAATLSRSQDRKVKISEIIKHTSVM
notes: full-length ORF from ASKA library in pCA24N, N-terminal His6-tag kept, expressed in E. coli BL21
Protein B1 has a K0.5 (purified protein [1]) of 0.45 mM, a K0.5 (purified protein [2]) of 0.30 mM and a K0.5 [3] of 0.84 µM.
